The source of these data is the supplement of paper PMC10899765.

Common to all, as to settings: 20 nM; 72 h
Data set [1] concerns MCF10A. Put plainly: one-nucleolus phenotype percent effect (relative to siNT 0% and siNOL11 100%); higher = more cells with one nucleolus (ribosome biogenesis inhibition). The method, then:
(§1)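 After 72 h, cells were fixed and stained with Hoechst and anti-fibrillarin, and nucleoli per nucleus were counted with CellProfiler. Values are plate-adjusted percent effect for the one-nucleolus and 5+ nucleoli phenotypes, normalised to siNT (0%) and to the positive controls siNOL11 or siKIF11 (100%), as the mean of biological triplicates. Percent viability is the nuclei count relative to siNT.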

In data set [2] the test system is MCF10A. Put plainly: percent viability (nuclei count relative to siNT); higher = more viable cells. The protocol:
as §1

Data set [3] has as its system MCF10A. Put plainly: 5+ nucleoli phenotype percent effect (relative to siNT 0% and siKIF11 100%); higher = more cells with five or more nucleoli. The protocol: as §1

UUACAGGCGUGAACCACCGCG [hsa-miR-5095]: in data set [1], the “one-nucleolus phenotype percent effect” value came out at 15.8%. Moreover, in data set [2], the percent viability worked out at 12.8%. Also, in data set [3], the “5+ nucleoli phenotype percent effect” value was -7.36%.

Regarding “CCAGGGAGGCUGGUUUGGAGGA [hsa-miR-6754-5p]”, the “one-nucleolus phenotype percent effect” value in data set [1] turned out to be 22.6%. For the same sequence, the percent viability in data set [2] was 38%. In addition, in data set [3], the “5+ nucleoli phenotype percent effect” value was -21.9%.

On to AGCCAAGUGGAAGUUACUUUA [hsa-miR-4480], for which, in data set [1], the “one-nucleolus phenotype percent effect” value came out at 33.8%. In addition, the percent viability in data set [2] was determined as 21.9%. The “5+ nucleoli phenotype percent effect” value in data set [3] was -37.2%.

For the sequence “UGGGCGAGGGGUGGGCUCUCAGAG [hsa-miR-4649-5p]”, the “one-nucleolus phenotype percent effect” value in data set [1] was determined as 1.85%. In addition, the percent viability in data set [2] turned out to be 45.5%. For the same sequence, the “5+ nucleoli phenotype percent effect” value in data set [3] came to 19.2%.

GGGAUGGUAGACCGGUGACGUGC [hsa-miR-1193]: the “one-nucleolus phenotype percent effect” value in data set [1] came out at 19.2%. Moreover, the percent viability in data set [2] turned out to be 24.3%. In addition, the “5+ nucleoli phenotype percent effect” value in data set [3] was -23%.

Consider ACUCUUUCCCUGUUGCACUAC [hsa-miR-130b-5p], for which the “one-nucleolus phenotype percent effect” value in data set [1] was -13.5%. In data set [2], the percent viability was determined as 54.3%. In data set [3], the “5+ nucleoli phenotype percent effect” value is 16.1%.

As to UGGCUCAGUUCAGCAGGAACAG [hsa-miR-24-3p], in data set [1], the “one-nucleolus phenotype percent effect” value is 2.42%. In data set [2], the percent viability came out at 26.5%. In addition, the “5+ nucleoli phenotype percent effect” value in data set [3] is -17%.

Consider CCCCGGGGAGCCCGGCG [hsa-miR-4532], for which the “one-nucleolus phenotype percent effect” value in data set [1] was -24.8%. Besides, the percent viability in data set [2] was 148%. Further, in data set [3], the “5+ nucleoli phenotype percent effect” value is 45.2%.

For UGUGUCCGGGAAGUGGAGGAGG [hsa-miR-4669], in data set [1], the “one-nucleolus phenotype percent effect” value turned out to be 2.82%. Moreover, the percent viability in data set [2] worked out at 74.6%. Moreover, the “5+ nucleoli phenotype percent effect” value in data set [3] is -24.1%.

Turning to “GUGAGUAGUGGCGCGCGGCGGC [hsa-miR-6869-5p]”, the “one-nucleolus phenotype percent effect” value in data set [1] is 12.6%. The percent viability in data set [2] worked out at 32.4%. Besides, the “5+ nucleoli phenotype percent effect” value in data set [3] is -16.7%.

On to AAGACGGGAGGAAAGAAGGGAG [hsa-miR-483-5p], for which the “one-nucleolus phenotype percent effect” value in data set [1] came to 19.1%. The percent viability in data set [2] came to 51.5%. Further, the “5+ nucleoli phenotype percent effect” value in data set [3] is -31.8%.

Take “UUGGGAGGGAAGACAGCUGGAGA [hsa-miR-6780a-5p]”: the “one-nucleolus phenotype percent effect” value in data set [1] came to 55%. Moreover, in data set [2], the percent viability was found to be 13.4%. Moreover, the “5+ nucleoli phenotype percent effect” value in data set [3] was -30.2%.

Regarding CUGCCAGCCCCGUUCCAGGGCA [hsa-miR-3972], the “one-nucleolus phenotype percent effect” value in data set [1] was -2.85%. Further, the percent viability in data set [2] stood at 42.9%. Moreover, the “5+ nucleoli phenotype percent effect” value in data set [3] is -1.63%.

As for UCUGGGUGCAGUGGGGGUU [hsa-miR-6776-5p], in data set [1], the “one-nucleolus phenotype percent effect” value turned out to be 24.4%. In addition, the percent viability in data set [2] worked out at 2.41%. In data set [3], the “5+ nucleoli phenotype percent effect” value is -32.7%.

For the sequence AGGCUGCGGAAUUCAGGAC [hsa-miR-604], in data set [1], the “one-nucleolus phenotype percent effect” value turned out to be 29.2%. In addition, in data set [2], the percent viability came to 25.6%. Further, the “5+ nucleoli phenotype percent effect” value in data set [3] was -15.7%.

Consider GCCGGACAAGAGGGAGG [hsa-miR-4442], for which, in data set [1], the “one-nucleolus phenotype percent effect” value was -19.9%. Also, the percent viability in data set [2] was 96%. Also, in data set [3], the “5+ nucleoli phenotype percent effect” value turned out to be 25.4%.

As for AUCAUAGAGGAAAAUCCACGU [hsa-miR-376a-3p], in data set [1], the “one-nucleolus phenotype percent effect” value was -19.3%. The percent viability in data set [2] worked out at 52.2%. In data set [3], the “5+ nucleoli phenotype percent effect” value was determined as 51.3%.

AGGAGGAAUUGGUGCUGGUCUU [hsa-miR-766-5p]: the “one-nucleolus phenotype percent effect” value in data set [1] is 33.8%. Moreover, in data set [2], the percent viability stood at 5.17%. In addition, in data set [3], the “5+ nucleoli phenotype percent effect” value is -33%.

“AACCACUUUCUUUGCUCAUCCA [hsa-miR-1255b-2-3p]”: in data set [1], the “one-nucleolus phenotype percent effect” value amounted to 7.09%. Further, the percent viability in data set [2] worked out at 32.1%. Besides, the “5+ nucleoli phenotype percent effect” value in data set [3] is -17.2%.

For “UGUGUUAGAAUAGGGGCAAUAA [hsa-miR-3152-3p]”, in data set [1], the “one-nucleolus phenotype percent effect” value was determined as 4.92%. Further, the percent viability in data set [2] amounted to 35.1%. The “5+ nucleoli phenotype percent effect” value in data set [3] was -11.7%.

As to UGCCCUUAAAGGUGAACCCAGU [hsa-miR-938], in data set [1], the “one-nucleolus phenotype percent effect” value came to 6.19%. Moreover, the percent viability in data set [2] amounted to 57.4%. The “5+ nucleoli phenotype percent effect” value in data set [3] amounted to 6.12%.

Take “ACUGGACUUGGAGUCAGAAGGC [hsa-miR-378a-3p]”: in data set [1], the “one-nucleolus phenotype percent effect” value was -2.19%. In addition, the percent viability in data set [2] came out at 66.7%. For the same sequence, the “5+ nucleoli phenotype percent effect” value in data set [3] was determined as 13.6%.

On to CGUGUUCACAGCGGACCUUGAU [hsa-miR-124-5p], for which the “one-nucleolus phenotype percent effect” value in data set [1] is 6.24%. For the same sequence, the percent viability in data set [2] worked out at 77.3%. For the same sequence, the “5+ nucleoli phenotype percent effect” value in data set [3] was -28.6%.

Take ACUGACAGGAGAGCAUUUUGA [hsa-miR-3660]: in data set [1], the “one-nucleolus phenotype percent effect” value is -1.95%. The percent viability in data set [2] stood at 55%. Also, the “5+ nucleoli phenotype percent effect” value in data set [3] was found to be 21.1%.

As for “UGGGAAAGACAAACUCAGAGUU [hsa-miR-6733-5p]”, the “one-nucleolus phenotype percent effect” value in data set [1] was 5.71%. The percent viability in data set [2] was determined as 23.6%. Also, the “5+ nucleoli phenotype percent effect” value in data set [3] was determined as 8.82%.

With “AGUGGGAGGCCAGGGCACGGCA [hsa-miR-1233-1-5p]”, the “one-nucleolus phenotype percent effect” value in data set [1] was determined as 24.3%. The percent viability in data set [2] is 26.5%. Further, in data set [3], the “5+ nucleoli phenotype percent effect” value is -38.8%.

Regarding CUGACCUAUGAAUUGACAGCC [hsa-miR-192-5p], in data set [1], the “one-nucleolus phenotype percent effect” value is 57.2%. For the same sequence, the percent viability in data set [2] turned out to be 28.2%. Moreover, the “5+ nucleoli phenotype percent effect” value in data set [3] was -30%.

As for UAGCAGCACGUAAAUAUUGGCG [hsa-miR-16-5p], in data set [1], the “one-nucleolus phenotype percent effect” value came to 27.2%. Also, the percent viability in data set [2] came out at 15.8%. The “5+ nucleoli phenotype percent effect” value in data set [3] is -19.3%.

As for GAUGGUUGACCAGAGAGCACAC [hsa-miR-758-5p], the “one-nucleolus phenotype percent effect” value in data set [1] is -21.1%. The percent viability in data set [2] turned out to be 56.6%. Also, in data set [3], the “5+ nucleoli phenotype percent effect” value is 60.1%.

With AAUCCUUGCUACCUGGGU [hsa-miR-500b], the “one-nucleolus phenotype percent effect” value in data set [1] was -0.735%. Further, in data set [2], the percent viability came to 32.3%. In data set [3], the “5+ nucleoli phenotype percent effect” value is 12.8%.

Regarding CACCAGGCAUUGUGGUCUCC [hsa-miR-1911-3p], in data set [1], the “one-nucleolus phenotype percent effect” value was determined as 26.3%. For the same sequence, in data set [2], the percent viability amounted to 45%. In addition, in data set [3], the “5+ nucleoli phenotype percent effect” value was -9.8%.

With “AGGGAGAAAGCUAGAAGCUGAAG [hsa-miR-6878-5p]”, the “one-nucleolus phenotype percent effect” value in data set [1] was -18.3%. In data set [2], the percent viability came to 72.6%. In data set [3], the “5+ nucleoli phenotype percent effect” value is 44.5%.

Regarding AAUGCACCCGGGCAAGGAUUCU [hsa-miR-501-3p], the “one-nucleolus phenotype percent effect” value in data set [1] came to 10.8%. The percent viability in data set [2] was 48.2%. The “5+ nucleoli phenotype percent effect” value in data set [3] is -14.1%.

Turning to AGGGGUGGUGUUGGGACAGCUCCGU [hsa-miR-608], the “one-nucleolus phenotype percent effect” value in data set [1] came out at 8.02%. The percent viability in data set [2] came to 10.6%. In addition, the “5+ nucleoli phenotype percent effect” value in data set [3] is -9.99%.

Regarding CCUAGACACCUCCAGUUC [hsa-miR-4305], the “one-nucleolus phenotype percent effect” value in data set [1] was -1.35%. In addition, the percent viability in data set [2] was determined as 39.4%. Moreover, in data set [3], the “5+ nucleoli phenotype percent effect” value was -1.06%.

For GCUGCGGGCUGCGGUCAGGGCG [hsa-miR-4734], the “one-nucleolus phenotype percent effect” value in data set [1] is -5.38%. In addition, the percent viability in data set [2] was 40.7%. In addition, the “5+ nucleoli phenotype percent effect” value in data set [3] came out at 8.16%.
